Reference: PMC4897654, “hSSB1 (NABP2/OBFC2B) is regulated by oxidative stress” (Scientific Reports, 2016)

How the values were obtained:
[1] = target: the molecule itself; assay: non-reducing SDS-PAGE; recombinant hSSB1 proteins purified under non-reducing conditions, no reducing agent; Coomassie blue (2 μg) and anti-hSSB1 immunoblot (500 ng)
[2] = target: the molecule itself; assay: SEC-MALS; non-reduced (oxidized) protein, ~200-250 μg on Superose 12 10/30; 20 mM Tris pH 7, 100 mM NaCl, 1 mM EDTA, without TCEP
[3] = target: the molecule itself; assay: non-reducing SDS-PAGE with immunoblot; whole cell lysates of U2OS cells (2% O2) treated with 250 μM H2O2 or 30 mM KBrO3 for 30 min; loading buffer without DTT; probed for endogenous hSSB1

B1: recombinant C99S hSSB1 (natural protein, human, UniProt Q9BQ15 1-211, looked up)
chain: MTTETFVKDIKPGLKNLNLIFIVLETGRVTKTKDGHEVRTCKVADKTGSINISVWDDVGNLIQPGDIIRLTKGYASVFKGCLTLYTGRGGDLQKIGEFSMVYSEVPNFSEPNPEYSTQQAPNKAVQNDSNPSASQPTTGPSAASPASENQNGNGLSAPPGPGGGPHPPHTPSHPPSTRITRSQPNHTPAGPPGPSSNPVSNGKETRRSSKR
notes: human hSSB1 (NABP2/OBFC2B) with cysteine 99 mutated to serine; source: E. coli T7 shuffle strain, purified under non-reducing conditions
B1: binds [1].

B2: recombinant C81S hSSB1 (natural protein, human, UniProt Q9BQ15 1-211, looked up)
chain: MTTETFVKDIKPGLKNLNLIFIVLETGRVTKTKDGHEVRTCKVADKTGSINISVWDDVGNLIQPGDIIRLTKGYASVFKGSLTLYTGRGGDLQKIGEFCMVYSEVPNFSEPNPEYSTQQAPNKAVQNDSNPSASQPTTGPSAASPASENQNGNGLSAPPGPGGGPHPPHTPSHPPSTRITRSQPNHTPAGPPGPSSNPVSNGKETRRSSKR
notes: human hSSB1 (NABP2/OBFC2B) with cysteine 81 mutated to serine; source: E. coli T7 shuffle strain, purified under non-reducing conditions
B2: binds [1].

B3: recombinant hSSB1 (hexa-histidine tagged, wild type) (natural protein, human, UniProt Q9BQ15 1-211, looked up)
chain: MTTETFVKDIKPGLKNLNLIFIVLETGRVTKTKDGHEVRTCKVADKTGSINISVWDDVGNLIQPGDIIRLTKGYASVFKGCLTLYTGRGGDLQKIGEFCMVYSEVPNFSEPNPEYSTQQAPNKAVQNDSNPSASQPTTGPSAASPASENQNGNGLSAPPGPGGGPHPPHTPSHPPSTRITRSQPNHTPAGPPGPSSNPVSNGKETRRSSKR
notes: Oxidized and reduced preparations are the same construct; also called his-hSSB1; hSSB1 WT; source: E. coli T7 shuffle strain (Δgor ΔtrxB), purified (SP sepharose, Ni-NTA, Superdex200); without reducing agents ("oxidized") or with 1 mM DTT in all buffers ("reduced")
For B3, the “stoichiometry N” value [2] was greater than 3 and the “stoichiometry N” value [1] was 2.

B4: human single-stranded DNA binding protein 1 (hSSB1), endogenous (natural protein, human (endogenous in U2OS), UniProt Q9BQ15 1-211, looked up)
chain: MTTETFVKDIKPGLKNLNLIFIVLETGRVTKTKDGHEVRTCKVADKTGSINISVWDDVGNLIQPGDIIRLTKGYASVFKGCLTLYTGRGGDLQKIGEFCMVYSEVPNFSEPNPEYSTQQAPNKAVQNDSNPSASQPTTGPSAASPASENQNGNGLSAPPGPGGGPHPPHTPSHPPSTRITRSQPNHTPAGPPGPSSNPVSNGKETRRSSKR
notes: also called NABP2; OBFC2B; source: endogenous, U2OS whole cell lysate
For B4, the “stoichiometry N” value [3] was roughly 4.
